Results from patent publication US20240101684A1 (AIMED BIO, published 2024).

What was measured:
[1] = molecular target: T1, monkey FGFR3 recombinant protein (90313-C02H, Sino Biological) (cynomolgus monkey, UniProt A0A2K5V1U5 23-376); assay: ELISA on cynoFGFR3
T1 construct: Bought recombinant antigen; also called cynomolgus monkey FGFR3; cyno FGFR3
T1 sequence: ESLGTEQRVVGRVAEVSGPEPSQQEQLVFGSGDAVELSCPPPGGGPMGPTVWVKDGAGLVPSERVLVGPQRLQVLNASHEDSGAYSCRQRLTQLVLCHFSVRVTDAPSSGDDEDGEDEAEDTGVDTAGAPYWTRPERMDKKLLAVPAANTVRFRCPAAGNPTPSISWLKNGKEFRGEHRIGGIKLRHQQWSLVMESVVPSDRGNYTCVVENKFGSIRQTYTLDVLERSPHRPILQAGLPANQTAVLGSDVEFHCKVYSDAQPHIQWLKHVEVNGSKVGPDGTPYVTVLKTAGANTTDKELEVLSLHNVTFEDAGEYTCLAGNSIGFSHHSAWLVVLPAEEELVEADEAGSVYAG
Protocol: (§1) Affinity ELISA was performed to determine the binding ability of the produced antibody (IgG) to the FGFR3 antigen. A 96-well plate (4° C., overnight) was coated with […] of FGFR3 antigen and blocked with 3% skim milk (PBS) (room temperature, 1 hour). Then, the plate was treated with previously serially diluted antibody samples in duplicate and triplicate, and reacted at room temperature for 1 hour. Then, the result was washed with PBST 2 to 3 times, treated with the HRP-conjugated anti-human Fab antibody diluted in skim milk (room temperature, 1 hour), and washed again with PBST, and a color reaction (TMB substrate) was performed. Then, O.D. was measured at 450 nm.
(§2) The binding ability of the produced antibody (IgG) to human FGFR3 IIIb (1264-FR-050, R&D), IIIc (766-FR-050, R&D), mouse FGFR3 (9089-FR, R&D), and monkey FGFR3 (90313-C02H, Sino Biological) antigens was determined in the same manner as above.
(§3) The epitope domain mapping performed above was also performed on the affinity matured antibody F309 #SSM236 (hereinafter referred to as AMB302 #1.2). […] The antibody was also found to have specific binding ability to human/cyno FGFR3 (FIG. 17).

[2] = molecular target: T2, human FGFR3 IIIc recombinant protein (766-FR-050, R&D) (human, UniProt P22607 23-375); assay: ELISA on humanFGFR3-IIIc
T2 construct: Bought recombinant antigen; also called FGFR3-IIIc (Human)
T2 sequence (looked up): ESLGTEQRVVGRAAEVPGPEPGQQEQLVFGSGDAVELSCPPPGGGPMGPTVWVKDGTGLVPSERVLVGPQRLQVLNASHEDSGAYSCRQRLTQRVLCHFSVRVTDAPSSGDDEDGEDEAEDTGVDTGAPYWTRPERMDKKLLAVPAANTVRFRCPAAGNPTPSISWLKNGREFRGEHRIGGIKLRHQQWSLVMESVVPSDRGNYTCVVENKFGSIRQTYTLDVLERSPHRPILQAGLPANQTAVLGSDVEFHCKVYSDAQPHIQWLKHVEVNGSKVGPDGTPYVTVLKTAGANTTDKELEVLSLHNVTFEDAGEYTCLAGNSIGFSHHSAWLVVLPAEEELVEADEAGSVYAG
Protocol: as §1, §2, §3

[3] = molecular target: T3, FGFR3 recombinant protein (isoform not given) (Homo sapiens (Human), UniProt P22607 23-375, limits assumed); assay: affinity ELISA on hFGFR3, lower left panel
T3 construct: also called FGFR3 antigen
T3 sequence: T2 sequence (looked up)
Protocol: as §1
The antigen affinity of the synthesized ADC sample (TOPOI-conjugated ADC) was determined by ELISA and the determination was performed in the same manner as the affinity ELISA performed in the present invention. […] In addition, the high purity physical properties of the prepared ADC were identified through SEC-HPLC analysis.

[4] = molecular target: T4, FGFR3 Ig domain II with Fc tag (UniProt P22607 151-244); assay: FGFR3 Domain ELISA, AMB302#1.2, bar Domain#2
T4 construct: domain: FGFR3 Ig domain II; Recombinant domain made in mammalian cells; also called domain No. 2
T4 sequence: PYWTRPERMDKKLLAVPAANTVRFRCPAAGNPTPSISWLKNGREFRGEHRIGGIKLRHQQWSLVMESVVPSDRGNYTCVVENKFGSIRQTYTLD
Protocol: (§4) FGFR3 is composed of three domains, so each domain (FGFR3 Ig domain I, domain II, domain III) is attached with an Fc tag to analyze the FGFR3-binding domain of the discovered antibody, and produced and purified through a mammalian cell protein expression system (FIG. 9C). Analysis of the binding ability of the antibody to the purified domain was performed in the same manner as the ELISA described above. 1 μg/ml of an antigen was coated and treated with the antibody to induce a TMB color reaction. […] However, the epitope of the comparative antibody is included in domain No. 2, which was conducted according to the present invention. In addition, ligands of FGF1 and FGF9, and FGFR3 have been reported to bind to Ig domain II and domain III of FGFR3. Based on this, competition ELISA assay was conducted. […] This supports binding of F309 antibody to the aforementioned FGFR3 Ig domain I (FIG. 9A).
as §3

Domain#3 = molecular target: T5, Domain#3 (human, UniProt P22607); assay: FGFR3 Domain ELISA, AMB302#1.2, bar Domain#3
T5 construct: single domain fused to human IgG1 Fc; also called FGFR3 Domain 3; FGFR3 Ig domain III with Fc tag
T5 sequence (Fc fusion chain): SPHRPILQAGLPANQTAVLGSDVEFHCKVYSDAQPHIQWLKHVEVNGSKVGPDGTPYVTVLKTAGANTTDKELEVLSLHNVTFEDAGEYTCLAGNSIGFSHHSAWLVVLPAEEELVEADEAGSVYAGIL
Protocol: as §4, §3

[5] = molecular target: T1, monkey FGFR3 recombinant protein …; assay: SPR (Biacore), antigen immobilised 92 RU, antibody injected
[6] = molecular target: T2, human FGFR3 IIIc recombinant protein …; assay: SPR (Biacore), antigen immobilised 74.5 RU, antibody injected
[7] = molecular target: T6, human FGFR3 IIIb recombinant protein (1264-FR-050, R&D) (human, UniProt P22607-2 23-377); assay: SPR (Biacore), antigen immobilised 276.2 RU, antibody injected
T6 construct: Bought recombinant antigen; also called rhFGFR3-IIIb; FGFR3-IIIb (Human)
T6 sequence (looked up): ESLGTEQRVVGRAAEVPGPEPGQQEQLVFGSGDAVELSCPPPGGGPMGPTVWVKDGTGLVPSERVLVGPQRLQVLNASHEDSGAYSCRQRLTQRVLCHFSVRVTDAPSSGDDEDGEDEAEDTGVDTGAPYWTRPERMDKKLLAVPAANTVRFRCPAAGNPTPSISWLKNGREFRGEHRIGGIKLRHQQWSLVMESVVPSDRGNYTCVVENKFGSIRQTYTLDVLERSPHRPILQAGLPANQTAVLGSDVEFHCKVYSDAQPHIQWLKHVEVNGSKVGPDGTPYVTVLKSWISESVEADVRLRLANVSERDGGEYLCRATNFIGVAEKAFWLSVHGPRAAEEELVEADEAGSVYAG

[8] = molecular target: T6, human FGFR3 IIIb recombinant protein …; assay: direct-binding ELISA on rhFGFR3-IIIb, 2' screening, plate 1 (row head prints IC50)

EC50 (read off the curve) [1]: ~300 pM
EC50 (read off the curve) [2]: ~300 pM
EC50 (read off the curve) [3]: ~400 pM
binding result [4]: no binding
binding result (Domain#3): no binding
Kd [5]: 755 pM
Kd [6]: 309 pM
Kd [7]: 590 pM
EC50 [8]: 753 pM
B1: F309#SSM236 (antibody, V domains shown)
VH: EVQLLESGGGLVQPGGSLRLSCAASGFTFSSYDMSWVRQAPGKGLEWVSGIYSGDGSIYYADSVKGRFTISRDNSKNTLYLQMNSLRAEDTAVYYCAKDGPMNEESRFDYWGQGTLVTVSS
VL: QSVLTQPPSASGTPGQRVTISCSGSSSNIGNNYVSWYQQLPGTAPKLLIYADSKRPSGVPDRFSGSKSGTSASLAISGLRSEDEADYYCASWDYSLSGYVFGGGTKLTVL
notes: also called AMB302 #1.2; AMB302#1.2
